Experimental data published in article PMC11968997.
Like-named read-outs stand apart in the source and are kept apart here.

Substance: PDHA1: K83R
- degradation_or_half_life (other: succinylation at K83): no change
- enzymatic_activity (other: succinylation at K83): decreases
- other (other: succinylation at K83): increases

Substance: PDHA1: K83R S293A (compared with K83R)
- enzymatic_activity (phosphorylation at S293): increases
